# From patent US20180155451A1 (published 2018)
# T1: FcγRIIb (human, UniProt P31994 43-217)
# T1 construct: extracellular domain; for crystallography expressed with Kifunesine and trimmed with Endo F1; also called FcgRIIb; FcgR2b; not shown: His tag attached to the C terminus
# T1 sequence (looked up): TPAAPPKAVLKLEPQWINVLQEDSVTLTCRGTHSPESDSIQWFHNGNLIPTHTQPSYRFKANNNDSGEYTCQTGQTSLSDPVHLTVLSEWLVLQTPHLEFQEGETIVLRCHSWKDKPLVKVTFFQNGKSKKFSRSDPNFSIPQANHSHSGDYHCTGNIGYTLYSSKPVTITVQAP
# B1: GpH7-A5/GpH7-B41/GpL16-k0 (antibody, human IgG1, kappa)
# heavy 1: not shown
# heavy 2: QVQLVQSGAEVKKPGASVTVSCKASGYTFTDYEMHWIRQPPGEGLEWIGAIDPKTGDTAYSESFQDRVTLTADKSTSTAYMELSSLTSEDTAVYYCTRFYSYTYWGQGTLVTVSSASTKGPSVFPLAPSSKSTSGGTAALGCLVKDYFPEPVTVSWNSGALTSGVHTFPAVLQSSGLYSLSSVVTVPSSSLGTQTYICNVNHKPSNTKVDKKVEPKSCDKTHTCPPCPAPEDLGGPSVFLFPPKPKDTLMISRTPEVTCVVVDVSHEDPEVKFNWYVDGVEVHNAKTKPREEQYNSTYRVVSVLTVLHQDWLNGKEYKCKVSNKALRAPIEKTISKAKGQPREPQVYTLPPSRDELTKNQVSLTCLVKGFYPSDIAVEWESNGQPENNYKTTPPVLDSDGSFFLYSKLTVDKSRWQQGNVFSCSVMHEALHNHYTQESLSLSP
# light: DIVMTQSPLSLPVTPGEPASISCQASESLVHSNRNTYLHWYLQKPGQSPQLLIYKVSNRFSGVPDRFSGSGSGTDFTLKISRVEAEDVGVYYCSQNTHVPPTFGQGTKVEIERTVAAPSVFIFPPSDEQLKSGTASVVCLLNNFYPREAKVQWKVDNALQSGNSQESVTEQDSKDSTYSLSSTLTLSKADYEKHKVYACEVTHQGLSSPVTKSFNRGEC
# notes: L234D and P329R in the same H chain
# Target: T1, FcγRIIb
# Experiment: SPR (Biacore), relative binding; compared with GpH7-A5/GpH7-B12/GpL16-k0
# Description: Analysis of interaction between objective antibody and the FcγR was carried out using Biacore T100 (GE Healthcare). HBS-EP+ (GE Healthcare) was used as the running buffer, and the measurement temperature was set to 25° C. Chips produced by immobilizing the antigen peptide by the amine coupling method to a Series S Sencor Chip CM5 (GE Healthcare), or alternatively, chips produced by allowing preliminarily biotinylated antigen peptides to interact with and immobilize onto a Series S Sensor Chip SA (certified) (GE Healthcare) were used. Antibodies of interest were captured onto an antigen peptide-immobilized chip, and allowed to interact to each FcγR diluted with running buffer. To regenerate and repeatedly use the chip, the antibodies captured on the chip were washed off by reacting 10 mM glycine-HCl, pH 1.5.
binder,measurement,value
B1,binding result,binds
